From patent publication US20230301998A1 (SANFORD BURNHAM PREBYS MEDICAL DISCOVERY INSTITUTE, published 2023)

What was measured:
[1] = target: T1, Interferon-activable protein 204 (Mus musculus) (IFI204) (Mus musculus, UniProt P0DOV2 1-619); assay: Flag IP and immunoblot of transfected HEK293T lysates
T1 construct: also called IF204
T1 sequence: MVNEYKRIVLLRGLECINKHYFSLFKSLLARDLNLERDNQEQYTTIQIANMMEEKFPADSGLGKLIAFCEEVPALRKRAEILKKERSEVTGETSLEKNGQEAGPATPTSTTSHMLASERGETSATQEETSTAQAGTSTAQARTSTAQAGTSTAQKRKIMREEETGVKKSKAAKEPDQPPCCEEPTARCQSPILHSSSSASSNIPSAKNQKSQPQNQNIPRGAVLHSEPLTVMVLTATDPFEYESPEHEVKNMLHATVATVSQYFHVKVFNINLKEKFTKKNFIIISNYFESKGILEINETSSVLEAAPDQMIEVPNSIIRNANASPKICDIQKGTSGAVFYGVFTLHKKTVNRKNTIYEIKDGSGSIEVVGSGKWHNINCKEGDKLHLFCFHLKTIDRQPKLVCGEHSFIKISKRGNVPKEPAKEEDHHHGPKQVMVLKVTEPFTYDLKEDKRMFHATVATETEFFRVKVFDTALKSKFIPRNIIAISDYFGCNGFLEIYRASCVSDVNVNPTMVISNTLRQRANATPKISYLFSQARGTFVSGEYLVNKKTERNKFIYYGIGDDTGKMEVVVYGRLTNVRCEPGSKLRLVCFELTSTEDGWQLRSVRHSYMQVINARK

[2] = target: T2, PRMT5 (endogenous, WM115 cells) (human, UniProt O14744 2-637); assay: Flag IP of Flag-SHARPIN from WM115 lysate, on-bead tryptic digestion, LC/MS-MS
T2 construct: endogenous protein co-purified from WM115 lysate; also called Protein arginine methyltransferase 5
Procedure, shortened: (§1)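 WM115 cells transfected with Flag-SHARPIN or empty plasmid; lysed in 1% Triton X-100 buffer (50 mM Tris-HCl pH7.4, 150 mM NaCl, 1 mM EDTA). Lysates pre-cleared 1 h at 4° C, immunoprecipitated on FLAG-M2 agarose overnight at 4° C, washed, then digested with trypsin on-bead for mass spectrometry.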

[3] = target: T3, HSPA5 (human, UniProt P11021 19-654); assay: as above
T3 construct: endogenous protein co-purified from WM115 lysate
Procedure, shortened: as §1

[4] = target: T4, HSPA9 (human, UniProt P38646 47-679); assay: as above
T4 construct: endogenous protein co-purified from WM115 lysate
Procedure, shortened: as §1

[5] = target: T5, HNRNPU (human, UniProt Q00839 2-825, limits assumed); assay: as above
T5 construct: endogenous protein co-purified from WM115 lysate
Procedure, shortened: as §1

[6] = target: T6, CLTC (human, UniProt Q00610 2-1675); assay: as above
T6 construct: endogenous protein co-purified from WM115 lysate
Procedure, shortened: as §1

[7] = target: T7, PKM (human, UniProt P14618 2-531, limits assumed); assay: as above
T7 construct: endogenous protein co-purified from WM115 lysate
Procedure, shortened: as §1

[8] = target: T8, XRCC5 (human, UniProt P13010 2-732); assay: as above
T8 construct: endogenous protein co-purified from WM115 lysate
Procedure, shortened: as §1

[9] = target: T9, SLC25A13 (human, UniProt Q9UJS0 2-675); assay: as above
T9 construct: endogenous protein co-purified from WM115 lysate
T9 sequence (looked up): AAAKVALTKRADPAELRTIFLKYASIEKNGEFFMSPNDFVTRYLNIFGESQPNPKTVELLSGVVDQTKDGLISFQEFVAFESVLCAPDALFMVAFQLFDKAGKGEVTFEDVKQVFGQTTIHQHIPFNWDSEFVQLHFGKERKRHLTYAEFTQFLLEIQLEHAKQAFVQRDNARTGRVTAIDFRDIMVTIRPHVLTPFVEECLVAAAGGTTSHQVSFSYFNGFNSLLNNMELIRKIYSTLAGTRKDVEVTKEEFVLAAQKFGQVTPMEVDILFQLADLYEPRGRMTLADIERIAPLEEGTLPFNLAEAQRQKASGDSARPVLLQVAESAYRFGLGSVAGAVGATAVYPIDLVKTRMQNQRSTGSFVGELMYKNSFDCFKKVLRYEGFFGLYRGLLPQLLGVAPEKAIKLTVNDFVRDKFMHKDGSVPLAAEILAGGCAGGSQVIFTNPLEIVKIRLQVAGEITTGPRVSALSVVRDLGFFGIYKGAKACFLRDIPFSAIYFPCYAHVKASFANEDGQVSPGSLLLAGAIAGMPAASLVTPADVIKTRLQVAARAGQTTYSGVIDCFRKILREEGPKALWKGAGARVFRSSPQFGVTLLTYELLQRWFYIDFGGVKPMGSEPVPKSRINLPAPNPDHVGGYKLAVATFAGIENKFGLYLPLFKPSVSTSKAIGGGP
Procedure, shortened: as §1

[10] = target: T10, P4HB (human, UniProt P07237 18-508); assay: as above
T10 construct: endogenous protein co-purified from WM115 lysate
Procedure, shortened: as §1

[11] = target: T11, HSPD1 (human, UniProt P10809 27-573); assay: as above
T11 construct: endogenous protein co-purified from WM115 lysate
Procedure, shortened: as §1

[12] = target: T12, MYH10 (human, UniProt P35580 1-1976, limits assumed); assay: as above
T12 construct: endogenous protein co-purified from WM115 lysate
Procedure, shortened: as §1

T8 sequence (P13010 2-732 limits assumed): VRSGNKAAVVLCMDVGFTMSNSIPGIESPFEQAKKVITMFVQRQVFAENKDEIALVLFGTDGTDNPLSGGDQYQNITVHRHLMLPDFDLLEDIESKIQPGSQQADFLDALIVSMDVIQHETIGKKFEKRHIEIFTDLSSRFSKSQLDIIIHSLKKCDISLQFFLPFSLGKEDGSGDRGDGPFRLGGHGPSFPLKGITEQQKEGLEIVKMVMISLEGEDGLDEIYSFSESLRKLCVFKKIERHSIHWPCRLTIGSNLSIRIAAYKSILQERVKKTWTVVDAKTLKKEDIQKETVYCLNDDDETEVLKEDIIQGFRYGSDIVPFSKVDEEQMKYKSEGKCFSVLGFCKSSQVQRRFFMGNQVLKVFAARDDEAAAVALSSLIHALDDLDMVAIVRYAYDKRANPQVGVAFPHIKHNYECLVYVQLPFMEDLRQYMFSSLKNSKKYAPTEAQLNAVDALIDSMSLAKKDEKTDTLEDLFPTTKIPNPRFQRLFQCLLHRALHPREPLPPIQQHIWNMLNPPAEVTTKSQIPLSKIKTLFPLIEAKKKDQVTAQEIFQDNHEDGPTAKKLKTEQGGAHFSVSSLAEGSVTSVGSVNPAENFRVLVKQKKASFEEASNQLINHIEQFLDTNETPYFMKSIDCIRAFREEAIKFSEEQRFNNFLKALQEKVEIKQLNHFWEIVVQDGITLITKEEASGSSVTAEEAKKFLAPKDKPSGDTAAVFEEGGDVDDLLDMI
T6 sequence (Q00610 2-1675 limits assumed): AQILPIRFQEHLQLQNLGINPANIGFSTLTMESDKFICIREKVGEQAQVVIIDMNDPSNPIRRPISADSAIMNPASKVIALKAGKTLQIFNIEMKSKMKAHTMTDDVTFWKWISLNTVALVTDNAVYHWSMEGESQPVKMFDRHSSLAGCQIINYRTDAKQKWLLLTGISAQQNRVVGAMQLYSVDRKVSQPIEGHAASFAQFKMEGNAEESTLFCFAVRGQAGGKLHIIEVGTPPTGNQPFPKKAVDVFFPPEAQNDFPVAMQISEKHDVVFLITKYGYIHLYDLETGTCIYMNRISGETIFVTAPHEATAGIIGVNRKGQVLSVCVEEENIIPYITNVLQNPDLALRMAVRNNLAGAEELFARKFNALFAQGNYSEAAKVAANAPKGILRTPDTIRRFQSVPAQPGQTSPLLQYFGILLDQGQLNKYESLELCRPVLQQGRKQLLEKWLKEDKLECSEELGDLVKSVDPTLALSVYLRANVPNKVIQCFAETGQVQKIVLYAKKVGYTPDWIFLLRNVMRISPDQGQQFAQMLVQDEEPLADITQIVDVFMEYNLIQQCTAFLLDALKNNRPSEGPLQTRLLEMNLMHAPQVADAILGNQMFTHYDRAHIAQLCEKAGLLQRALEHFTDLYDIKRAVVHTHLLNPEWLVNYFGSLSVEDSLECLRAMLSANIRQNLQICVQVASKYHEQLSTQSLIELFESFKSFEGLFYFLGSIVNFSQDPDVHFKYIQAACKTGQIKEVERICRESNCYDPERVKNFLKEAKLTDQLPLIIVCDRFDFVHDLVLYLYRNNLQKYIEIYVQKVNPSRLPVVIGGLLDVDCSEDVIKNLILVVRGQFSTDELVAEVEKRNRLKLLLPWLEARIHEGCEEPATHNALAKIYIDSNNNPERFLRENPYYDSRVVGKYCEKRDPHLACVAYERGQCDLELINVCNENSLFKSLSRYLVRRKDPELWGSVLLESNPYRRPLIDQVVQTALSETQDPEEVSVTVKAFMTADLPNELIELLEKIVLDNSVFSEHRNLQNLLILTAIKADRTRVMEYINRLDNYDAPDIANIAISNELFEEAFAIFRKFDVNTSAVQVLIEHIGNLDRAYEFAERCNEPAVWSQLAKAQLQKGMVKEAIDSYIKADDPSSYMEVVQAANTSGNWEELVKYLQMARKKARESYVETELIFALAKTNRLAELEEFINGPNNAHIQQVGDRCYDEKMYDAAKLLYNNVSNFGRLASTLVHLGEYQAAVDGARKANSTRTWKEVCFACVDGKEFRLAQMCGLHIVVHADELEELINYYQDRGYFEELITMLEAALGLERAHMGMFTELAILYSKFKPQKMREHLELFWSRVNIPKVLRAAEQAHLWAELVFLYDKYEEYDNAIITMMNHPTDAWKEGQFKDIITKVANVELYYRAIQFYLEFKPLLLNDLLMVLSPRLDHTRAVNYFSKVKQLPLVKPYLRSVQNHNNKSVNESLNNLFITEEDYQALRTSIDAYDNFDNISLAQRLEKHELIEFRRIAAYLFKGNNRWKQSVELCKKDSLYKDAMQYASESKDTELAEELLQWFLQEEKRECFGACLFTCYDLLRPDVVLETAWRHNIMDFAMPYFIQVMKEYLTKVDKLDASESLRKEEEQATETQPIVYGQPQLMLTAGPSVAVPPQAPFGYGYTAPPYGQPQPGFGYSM
T4 sequence (P38646 47-679 limits assumed): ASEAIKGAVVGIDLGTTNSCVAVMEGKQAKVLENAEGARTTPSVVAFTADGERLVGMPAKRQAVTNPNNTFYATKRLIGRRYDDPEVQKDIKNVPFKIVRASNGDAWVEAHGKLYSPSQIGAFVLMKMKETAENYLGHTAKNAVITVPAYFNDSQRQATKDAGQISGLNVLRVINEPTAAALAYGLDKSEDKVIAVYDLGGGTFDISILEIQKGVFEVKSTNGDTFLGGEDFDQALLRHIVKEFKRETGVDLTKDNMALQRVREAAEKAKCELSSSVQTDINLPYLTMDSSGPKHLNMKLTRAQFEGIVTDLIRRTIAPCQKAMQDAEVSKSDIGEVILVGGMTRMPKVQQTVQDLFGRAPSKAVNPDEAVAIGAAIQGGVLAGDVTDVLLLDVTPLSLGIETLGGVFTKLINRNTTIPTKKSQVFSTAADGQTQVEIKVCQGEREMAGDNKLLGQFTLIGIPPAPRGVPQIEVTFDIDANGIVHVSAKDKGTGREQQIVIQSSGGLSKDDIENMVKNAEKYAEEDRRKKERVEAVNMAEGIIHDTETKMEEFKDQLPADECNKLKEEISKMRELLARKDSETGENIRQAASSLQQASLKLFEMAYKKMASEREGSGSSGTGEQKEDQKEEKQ
T2 sequence (O14744 2-637 limits assumed): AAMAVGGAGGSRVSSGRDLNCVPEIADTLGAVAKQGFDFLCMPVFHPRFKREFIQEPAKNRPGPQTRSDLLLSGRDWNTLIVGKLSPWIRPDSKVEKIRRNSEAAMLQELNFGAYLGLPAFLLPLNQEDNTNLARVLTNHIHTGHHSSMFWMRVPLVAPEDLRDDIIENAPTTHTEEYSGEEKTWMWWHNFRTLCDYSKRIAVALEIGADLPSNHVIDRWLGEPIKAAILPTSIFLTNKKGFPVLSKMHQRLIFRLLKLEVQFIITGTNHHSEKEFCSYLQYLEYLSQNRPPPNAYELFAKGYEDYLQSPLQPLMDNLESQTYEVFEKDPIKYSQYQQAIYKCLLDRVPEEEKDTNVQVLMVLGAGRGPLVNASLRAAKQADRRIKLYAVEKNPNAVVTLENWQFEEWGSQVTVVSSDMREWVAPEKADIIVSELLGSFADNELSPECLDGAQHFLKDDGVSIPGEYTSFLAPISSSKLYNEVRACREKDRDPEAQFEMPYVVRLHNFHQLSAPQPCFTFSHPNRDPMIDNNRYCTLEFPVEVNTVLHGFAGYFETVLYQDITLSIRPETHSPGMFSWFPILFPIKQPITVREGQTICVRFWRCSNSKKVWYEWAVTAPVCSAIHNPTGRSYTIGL
T5 sequence (Q00839 2-825 limits assumed): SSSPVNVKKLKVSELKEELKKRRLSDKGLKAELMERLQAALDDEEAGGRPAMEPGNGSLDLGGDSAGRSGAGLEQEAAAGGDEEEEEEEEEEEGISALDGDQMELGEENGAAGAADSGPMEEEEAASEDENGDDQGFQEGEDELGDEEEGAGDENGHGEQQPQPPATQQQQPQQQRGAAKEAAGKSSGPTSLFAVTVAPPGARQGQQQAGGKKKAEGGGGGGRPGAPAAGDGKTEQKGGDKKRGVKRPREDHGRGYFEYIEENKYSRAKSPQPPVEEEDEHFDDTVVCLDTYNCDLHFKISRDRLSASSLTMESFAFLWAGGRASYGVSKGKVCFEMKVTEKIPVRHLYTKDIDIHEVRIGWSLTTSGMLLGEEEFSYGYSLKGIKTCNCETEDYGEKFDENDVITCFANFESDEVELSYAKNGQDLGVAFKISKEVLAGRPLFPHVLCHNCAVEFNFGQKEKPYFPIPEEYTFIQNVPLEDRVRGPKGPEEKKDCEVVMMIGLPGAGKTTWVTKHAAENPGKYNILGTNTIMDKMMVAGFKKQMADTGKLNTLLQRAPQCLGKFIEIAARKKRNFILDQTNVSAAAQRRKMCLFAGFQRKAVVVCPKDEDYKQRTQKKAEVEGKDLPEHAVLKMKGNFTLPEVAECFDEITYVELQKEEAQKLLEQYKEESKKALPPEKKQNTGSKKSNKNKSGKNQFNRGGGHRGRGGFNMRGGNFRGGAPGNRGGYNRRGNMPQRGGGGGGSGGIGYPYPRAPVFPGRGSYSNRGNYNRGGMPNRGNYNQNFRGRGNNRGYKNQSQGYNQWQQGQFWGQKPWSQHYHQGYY
T11 sequence (P10809 27-573 limits assumed): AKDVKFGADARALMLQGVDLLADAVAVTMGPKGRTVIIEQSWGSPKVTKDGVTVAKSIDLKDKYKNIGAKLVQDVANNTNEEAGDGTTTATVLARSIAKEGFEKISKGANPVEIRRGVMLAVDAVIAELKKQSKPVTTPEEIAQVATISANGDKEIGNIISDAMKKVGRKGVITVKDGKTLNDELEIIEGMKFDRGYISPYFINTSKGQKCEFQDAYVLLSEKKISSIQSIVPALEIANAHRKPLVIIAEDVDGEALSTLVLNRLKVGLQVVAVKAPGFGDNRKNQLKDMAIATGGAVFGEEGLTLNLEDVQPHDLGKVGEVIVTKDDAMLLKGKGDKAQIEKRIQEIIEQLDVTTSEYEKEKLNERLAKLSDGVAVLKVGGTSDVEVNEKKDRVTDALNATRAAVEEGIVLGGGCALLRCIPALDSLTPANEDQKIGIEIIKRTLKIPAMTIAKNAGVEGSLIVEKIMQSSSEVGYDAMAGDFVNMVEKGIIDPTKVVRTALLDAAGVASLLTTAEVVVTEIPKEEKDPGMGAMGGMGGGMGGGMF

binding result [1]: binds
binding result [2]: binds
binding result [3]: binds
binding result [4]: binds
binding result [5]: binds
binding result [6]: binds
binding result [7]: binds
binding result [8]: binds
binding result [9]: binds
binding result [10]: binds
binding result [11]: binds
binding result [12]: binds
B1: Flag-tagged SHARPIN (other, human, UniProt Q9H0F6 1-387, looked up)
chain: MAPPAGGAAAAASDLGSAAVLLAVHAAVRPLGAGPDAEAQLRRLQLSADPERPGRFRLELLGAGPGAVNLEWPLESVSYTIRGPTQHELQPPPGGPGTLSLHFLNPQEAQRWAVLVRGATVEGQNGSKSNSPPALGPEACPVSLPSPPEASTLKGPPPEADLPRSPGNLTEREELAGSLARAIAGGDEKGAAQVAAVLAQHRVALSVQLQEACFPPGPIRLQVTLEDAASAASAASSAHVALQVHPHCTVAALQEQVFSELGFPPAVQRWVIGRCLCVPERSLASYGVRQDGDPAFLYLLSAPREAPATGPSPQHPQKMDGELGRLFPPSLGLPPGPQPAASSLPSPLQPSWSCPSCTFINAPDRPGCEMCSTQRPCTWDPLAAAST
notes: also called Flag-SHARPIN; not shown: FLAG tag
